# Source: a protein production outcome set (Wang et al. 2014)
# Test: label from the status in PepcDB records
row,Sequence,protein production
1,MKKFNIKSLTLLIVLLPLIVNANNIDSHLLEQNDIAKYVAQSDTVGSFFERFSALLNYPIVVSKQAAKKRISGEFDLSNPEEMLEKLTLLVGLIWYKDGNALYIYDSGELISKVILLENISLNYLIQYLKDANLYDHRYPIRGNISDKTFYISGPPALVELVANTATLLDKQVSSIGTDKVNFGVIKLKNTFVSDRTYNMRGEDIVIPGVATVVERLLNNGKALSNRQAQNDPMPPFNITQKVSEDSNDFSFSSVTNSSILEDVSLIAYPETNSILVKGNDQQIQIIRDIITQLDIAKRHIELSLWIIDIDKSELNNLGVNWQGTASFGDSFGASFNMSSSASISTLDGNKFIASVMALNQKKKANVVSRPVILTQENIPAIFDNNRTFYVSLVGERNSSLEHVTYGTLINVIPRFSSRGQIEMSLTIEDGTGNSQSNYNYNNENTSVLPEVGRTKISTIARVPQGKSLLIGGYTHETNSNEIISIPFLSSIPVIGNVFKYKTSNISNIVRVFLIQPREIKESSYYNTAEYKSLISEREIQKTTQIIPSETTLLEDEKSLVSYLNY,failed
2,MKKFVTLLLCMLPVSLFAQVNDGIRQAMDNYDYETVVTLIEPDCQDSLLLITKAQALKAMNRYPEAIGVLNSLILKDSTNTKVLIDLAECYKLTGNSRRAANCYQKAMNLQPENKFFRLQFIRSLLASEDYEEARTACHGWLERDSLSATGYKYLGQAYEGLQDAASAFLSYNIAYRRDSLDAQTVARIAGIFNNNQQFKDAVDVTEVYRLSDTTNIDVNRQNAKAYCMLKEYGTAVKRYESLKELGDRSFLTLYYLGVSHYGDNWFYGAYDNLKEAYQKNPMDVNVLYYLAKASARTSWKKEGVEYMEEAFRIAVPSDSMMVRLYDGLVECYDYAGDTKKEVEALEKLYIYTKKNSILYKIACLYDWKEDEKNAIRYYRKYMATVSEDQRYALDEDGNPVEDRITLYQQAWKRIKKIKEEGFFRGDIPTKSFPVEKKDTLALRHAK,failed
3,MKKGFSALVEHNGYRVLVDTGTDGKILLNNMEGLGIDPNSIDALFLTHGHYDHTGGIAELLKARKDTLDVYAHPRIFEKRIALKPKRRDIGIPFSQEELESLGAIFHLNDKALEFLPGLISSGEIKRETWDRAVGYLLNNEKDPVRDDMALLIDLGDKIAVITGCGHSGILNIAKHAVEISKKPIRALIGGFHLRGASITILEDAVRGLKELNVEMLYPGHCTGIDEYAYLRMKLKAEHLNVGKEIVIK,failed
4,MKKGRFKRNWPIILFGIIVFIFSFYFKISPKSLKNFTDIMSASLSFSAIVTAIFFASFSLIPTSGSNKLVVMMEDLGTEIKIMDRLLVATFLSFISSLLSFISLFFSKTDTDLISILVVSSWLSSTVMMFLSSFFVLRTLILLVETYNNFKNK,failed
5,MKKIVILIISVLLLGGIIGGVYYFKNANKIGADASYVKITKDPTKSNEISFNNNYTLPAYDENGKETEVTFSADKELRKGAYLKLYIKEDKGVTSFEEVPEKEVPAKAAEKLKLEHHHHHH,failed
6,MKKKDMNKQVKIQDAVAAIILAEGPAGVSTTKVAKRVGIAQSNVYLYFKNKQALIDSVYARETNRILSTTDLDRLSDSTIDVTTRIRLYVQQVYDYSLANPDSLTIIQQIKALNGQGMTISAADADPNNIVANLLTAAIDAKVIKQLPVSLHMGVVFSTIHTHTTNISKGRYAQDQYTFGDIFQMIWDAMKQD,not failed
7,MKKKKAHAAGAGPKLSVTNPPRTFFEDTLALFNSRRFDLLDQKINEAVNKWPNHAVVWKAIGVIMLMEGRFKEAIEPLTTAANLAQGDAQLHHNLGVAYLRLEQYEKAVPWLQRATSLKPDYAQAFANLGIAQAEIGLLQAAESNYRTALKINKDFPEALNNLGNVLNDQKRYGEAEECFRRALVLKPDFAEALNNLGTSLKGLNRLEEAETTYRKSLSLMPDYTRAHIGLGHTLFKLRQPDKAAASFRRAIELSPYELEAHDGLSMTLGDTVPLWHLPMMNDKPRNDAYFNALQAAVTPETRVLEIGTGSGLLSMMSARLGARHVTTCEVVTAIAETAASIVKDNGFADQVTVIPKLSTTLEVGVDLEERADLLVSEILSSEFLGEGVLSSIEDAKRRLLKPGARIIPARGSVRIALFGGRDIEMNVRVDEVYGFDLSRFNDIVPPKQYVGRNDLNIELLSDGIGAIHFDFMGTDHFPTSRSYGIDVPITRAGRCCGVIQWIRLEMDDTFVFENHPAERNVASGWQHCVYLFKTPVDVQPGQVAQIIASHDIRTCWFFLKKIVTP,failed
8,MKKKLKLTSLLGLSLLIMTACATNGVTSDITAESADFWSKLVYFFAEIIRFLSFDISIGVGIILFTVLIRTVLLPVFQVQMVASRKMQEAQPRIKALREQYPGRDMESRTKLEQEMRKVFKEMGVRQSDSLWPILIQMPVILALFQALSRVDFLKTGHFLWINLGSVDTTLVLPILAAVFTFLSTWLSNKALSERNGATTAMMYGIPVLIFIFAVYAPGGVALYWTVSNAYQVLQTYFLNNPFKIIAEREAVVQAQKDLENRKRKAKKKAQKTK,failed
9,MKKKMITTIIAMLVIVVMLLPTKLGPVIDKYNPFYKTKEYYTVVNTIGQHVGDEWYEYEFIAFDERGKEQKIKKTVKHMLKRDEMLKVYAKGRYGESIEEIEAVNIPINAKSKLLSMRLEHHHHHH,not failed
10,MKKKNNNKLHYLDSKGKLYTSGLRSDTKEKYGEIPSSNKNHNLIEKYNELQSLLSKEEEKYDFVKNELGDLQKQKDLLKWHLCNNIKKLSMKRSDYKFKTETKSKLESKLKSLKDMNKIHKFEHDTLEELVHKMEQELETKMYIKNDIENIFNECINKKDEYLKDITQERISVFKERKKRQNQLQKLLLIMKQENNKNYNINYLKKYESNLMNEINSYKNYKDFETKIAMDLIDDHSLNDLYVT,failed
11,MKKLAISIGDINSIGLEILVRSHEELSKICTPFYFIHESLLNKALKLLNLKLFNAKIVAFKDDKDYEFNFIKKENSLEIYSFCLPLGFKVDENFEIQAGEIDAKSGLYGFLSFKAASYFVYEKHAHALLTLPIHKKAWEDAGLKYKGHTDALRDFFKKNAIMMLGCKELFVGLFSEHIPLAKVSKKITFKNLSIFLKDFYKETHFKKMGLLGFNPHAGDYGVIGGEEEKIMEKAIAFVNAFLHSKKDEKFFKKALKDENLQKELLLNFKGKGVYLPYPLVADTAFTKTGLKNCNRLVAMYHDLALAPLKALYFDKSINVSLNLPIIRVSVDHGTAFDKAYKNAKINTKSYFEAAKFAINLHSKA,not failed
12,MKKLGFVLFMSMFAFVSVVPAAEAKVIDHDKVQGFSEVTPVTVSQKAAKRFQPYLKVASGCVPFPAVDAQGNTSGGLEPTGAPEGHCSKSVGQVYSRSAWYNGVWAIMYAWYFPKDSPLPLKAFGHRHDWEGIVVWIDNPANQNPKVLSIAYSQHGKFQKTAPNNNIMEGDHPKIRYDAPQPPINHSLYVDSAKGGTQPLIGWEDLTPAARNALNTTDFGSANVPFNDHNFTNNLGKAWFR,failed
13,MKKLILYTLILLLMSCRSTQEVDTSVYMDAKQPVDKRVEALLAQMTLEEKVGQMDMVTVWDKEAIFKNGYYDFGAWLADLEPEECNQLQKLSEQTRLKIPYLIGMDAAHGYAMLTGRTIFPTSISMAATFNRELIYRTTSKAGEEIRSSGIHWAFAPCIDIVQDARWGRTGETYGEDPFLTSELVKEAIRGYQGNENPFKKVAVSVKHLVGGGASVGGCNHASAELSERALRSYFLPPFKAAIEAGCMTIMPGHNDIAGVPVHASKWLLTDIIKQEYGFKGFFISDMGDVENLATSLHQIAENQKEAVCKSVNAGLDMHMYSADSARFVSPLVELVREKKVSSRRIDDAVRRILKIKFELGLFEKRYVSPEEDSYGSKENKALALEAAREAIVLLKNDRQILPLDRTKYKKILVTGPNADNQSILGDWSIFQPDDHVTTILEGIQAAASPEQSILYSNSGRIKAKKSDLSVNTTDPAIQKKLITEGGGISDYSIDDAVRKARQSDLAIVAIGGYGIRSEWGLRTYGESADRPSIDFYGRQLELVQAIHATGTPVVIVIVNGKPLNNEWITKNIPTIVDVWEPGMYGGQALAEILFGEVNPSGKLPITIPKHAGQIPMYYYQRPSRYWTGYGLGSSREDEKPAFCFGHGLSYTSYEYSGLKIDSVIPQTQDIEFTFTVKNTGNMAGKETALVFIRDCVSSVVTPVACLKGFEKVSLNPGESKDIRIVIPYSDLGLWNEDMKYVVESGKFNLMIGRSVEDIRIKKDFFIK,failed
14,MKKLINRVDDVLSEQLQGFAKAHPEINLHPSSFYVTRHDAPVKGKVALLSGGGSGHEPMHAGFVGKGMLDGACPGEIFTSPTPDKMYDCAKAIDSGEGVLMIVKNYTGDVLNFETATELLHDEGVKIATVLVDDDVAVKDSLYTAGRRGVANTVLMEKLLGAAAERGDTLDDLVKLGHQINNNGFSIGIALQACTVPAAGKPSFTLPENEMEFGVGIHGEPGIDRRPFTSLNDTVDAMFNTLIENGHYQRTIRSWDRVNGDWIEETQEKQPLKSGDRVIALVNNLGATPLSELYGVYHRLALCCENFGLNIERSLIGSYCTSLDMSGISITLLKVDDALLTLWDAPVATPAMTK,failed
15,MKKLLLSLTLTVLLGLLGRPAIAANYEIKLVDEGVFAAIALPEGKAASNALIIITPHQVILAGAHFVPEGIKELIADIAEITPLPLRSVILTHHHKGFNYVDFDFPANVEIITSWQTWQALKAETRPLRNPVTFFEKGLTLLRSNTTIVLSSADFGHTEGDVFLFLPNEGILFASDLFYNDVVGYMGEGHMRDWVITLETLEAVGAQYVVPGLGQVTDRSGLRRFRLFFKDFLTEVLRHMEAGKTLAETKKLFRLPAHEGMPGYKAFLDVNLDRAYQDLRDQ,failed
16,MKKNIRLLTHNEIPRVWEIDRTELIERLYVLQQGQLVLSEQRFDMKGWPEGEAEHYTPVLLESAERGAPFWGVFEDDKLVAATSVDPQWRGQDNTLLQLSFLHISHQQRGQGLARILFDYCVEYAKQKGASGLYISSTPSENSVNFYQHMGCRLIDVPDTELYEREPEDIHLVLNFNKED,failed
17,MKKNIVVLVLIVLIIFSAGSGCISSDVISSANTSSDEADGNTGENSALGKSADSEPDQANITPYGKSSPYLYWEYELGDVTPENTLGGRSSVQDCVSFAPDGKSVATGTGSNLTVVSVSEKNVLWTKILSGNISDLTFSEDGKYLLVGEKSADGCIYSLDANTGEEIRTYRTSDDLGTDSNPKYQPCIYKITAAEDSVYVAAGRYWKDSKYGLASRVYGFSPDGTFSWKLPATENYARSVNWIDASQDGKNVVYSIGDWTNSLESDAVVYSVDAGGKLRWKYEIPALRPYFVSAAIWHGLDVSEDGSLVTAYTGDGRTYLFYDAEMKDPGDGKSEWYSEEYQSNVTTPEELEGSAIYTYGENAKIAADNEILYLTGATLPAYYPDNIPMAHPLENSLISCDAEKGETSWTYNLGGRCAGIFFSQDMRYFVLPVGKDTSTGDTRVHGVYVFDSRKSGNGNSKLLWTFRTEGVVENAAISSNCTVAAVEVPLQLENGDVTGKHRLIIVR,failed
18,MKKNKIGGSQSMFNKVWFRTGIFFIMLFILIKLFMEVHEVFAPIATIIGSVFLPFLISGFLFYICLPFQNILEKWGFPRWASITTIFIGLIVIIAIVVSFIAPIIISNINNLIKQTPSLQKEAEQLINFSLRQMDKLPDDVTHRINKAVKSMGDGATSILSNSVSYITSFISTVFLLIMVPFFLIYMLKDHEKFIPAIGKFFKGERKVFVVDLLKDLNFTLKSYIQGQVTVSIILGIILYIGYTIIGLPYTPLLVLFAGVANLIPFLGPWLSFAPAAILGIIDGPSTFIWVCVVTLIAQQLEGNVITPNVMGKSLSIHPLTIIVVILAAGDLGGFTLILVAVPLYAVIKTLVSNIFKYRQRIVDKANSNVKD,failed
